Results on two sequences are retold here after patent publication US7037502B2, “Peptide with the amino acid sequence of KVLDGQDP having anti-inflammatory properties” (priority 2001, dated 2006).

The target in assay [1] is T1, PLA2 (Bovine pancreas, EC 3.1.1.4) (Bos taurus, UniProt P00593).
T1 construct: 0.18 Unit PLA2 (Bovine pancreas, EC 3.1.1.4, Sigma); purchased Sigma; host or cells: bovine pancreas
In words: Inhibitory effect of synthetic peptides on PLA2 in vitro ([14C]-arachidonic acid release). The format is biochemical. Particulars: peptides 1×10^−8 M, preincubated 15 min at 37° C.; compared with the peptides known as PLA2 inhibitors. An excerpt:
It has been examined whether synthetic peptides contain inhibitory effect on PLA2 activity. A established PLA2 assay method was used to determine the enzymatic activity by measuring the release [^14C]-arachidonic acid from 1-acyl-2-[1-^14C]arachidonic acid-glycerophospho-ethanolamine (Biochem. Pharmacol. 54, 259–268, 1997). To determine the inhibitory activity, 0.18 Unit PLA2 (Bovine pancreas, EC 3.1.1.4, Sigma; 1.0 unit will hydrolyze […] of L-phosphatidylcholine to L-lysophosphatidylcholine and a fatty acid per min. at pH 8.0 at 37° C.) was preincubated for 15 minutes with the synthetic peptides (1×10^−8 M) at 37° C. in […] before adding 1-acyl-2-[1-^14C]arachidonic acid-glycerophospho-ethanolamine. The control was also PLA2 preincubated with buffer. After pre-incubation, PLA2 activity was assayed using sonicated liposomes, prepared as established method (Biochem. Biophys. Acta. 1083, 80–88, 1991). […] of 1-acyl-2-[1-^14C]arachidonic acid-glycerophospho-ethanolamine (about 2×10^5 dpm) was added in pre-incubated mixture, and incubated for 1 hr at 37° C. […]
For inhibitory test of the peptides given, each value is the mean of data from three separate experiments (S.D.<10%). The value of PLA2 activity incubated without peptides was determined as 100% PLA2 activity that is 5.57 pmole arachidonyl/hr. % Inhibition was shown in FIG. 1.

In assay [2] the target is T2, TGase (Guinea pig liver, EC 2.3.2.13) (UniProt P08587).
T2 construct: 0.001 U TGase (Guinea pig liver, EC 2.3.2.13, Sigma); purchased Sigma; host or cells: guinea pig liver
T2 sequence (P08587 1-690): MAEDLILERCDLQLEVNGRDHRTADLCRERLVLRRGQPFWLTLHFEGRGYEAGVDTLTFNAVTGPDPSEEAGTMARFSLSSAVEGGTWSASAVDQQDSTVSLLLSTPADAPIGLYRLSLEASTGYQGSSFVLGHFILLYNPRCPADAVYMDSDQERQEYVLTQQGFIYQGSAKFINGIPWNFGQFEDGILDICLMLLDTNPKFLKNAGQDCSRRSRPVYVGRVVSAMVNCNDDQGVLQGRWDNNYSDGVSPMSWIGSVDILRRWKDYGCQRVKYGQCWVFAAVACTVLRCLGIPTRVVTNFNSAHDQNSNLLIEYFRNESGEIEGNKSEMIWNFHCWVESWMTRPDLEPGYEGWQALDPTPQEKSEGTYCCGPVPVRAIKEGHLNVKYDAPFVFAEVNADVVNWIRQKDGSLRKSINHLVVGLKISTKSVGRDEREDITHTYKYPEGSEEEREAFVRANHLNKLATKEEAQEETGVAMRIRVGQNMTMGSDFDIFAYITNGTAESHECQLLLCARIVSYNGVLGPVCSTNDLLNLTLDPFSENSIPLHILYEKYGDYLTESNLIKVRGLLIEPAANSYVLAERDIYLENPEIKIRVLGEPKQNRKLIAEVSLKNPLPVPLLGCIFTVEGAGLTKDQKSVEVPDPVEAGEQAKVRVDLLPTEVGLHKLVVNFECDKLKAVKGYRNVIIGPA
As to the kind of experiment: Inhibitory effect of synthetic peptides on TGase in vitro ([14C]-putrescine incorporation into succinylated casein). It counts as biochemical. Particulars: peptides 1×10^−8 M, preincubated 15 min at 37° C.; compared with the peptides known as PLA2 inhibitors. An excerpt:
It is needed to inhibit the activity of TGase in order to secure maximum anti-inflammatory activity since the TGase activates PLA2. A established TGase assay method was used to determine the enzymatic activity by measuring the incorporation of [1,4]^14C-putrescine into succinylated casein (Folk J E., et al., Transglutaminase. Methods in Enzymol 1985; 113; 358–375).
To determine the inhibitory activity, 0.001 U TGase (Guinea pig liver, EC 2.3.2.13, Sigma; 1.0 unit will catalyze the formation of […] of hydroxamate per min. from N- -CBZ-Gln-Gly and hydroxylamine at pH 6.0 at 37° C.) was preincubated for 15 minutes with the synthetic peptides in 0.1 ml (1×10^−8 M) at 37° C. before adding the TGase/peptide mixture to the substrate solution (0.5 ml) containing 0.1 M Tris-acetate pH 7.5, 1% succinylated casein, 1 mM EDTA, 10 mM CaCl2, 0.5% lubrol PX, 5 mM DTT, 0.15M NaCl and 0.5 mCi ^14C-putrescine [Dupont-New England Nuclear, Wilmington, […] (118 Ci/mole)]. […] The TCA-insoluble precipitates were collected onto GF/A glass fiber filters, washed with cold 5% TCA, dried and counted. […]
For inhibitory test of the peptides given, each value is the mean of data from three separate experiments (S.D.<10%). The value of TGase activity incubated without peptides was determined as 100% TGase activity that is 4.89 pmole putrescine/hr. % Inhibition was shown in FIG. 2.

T1 sequence (P00593 23-145): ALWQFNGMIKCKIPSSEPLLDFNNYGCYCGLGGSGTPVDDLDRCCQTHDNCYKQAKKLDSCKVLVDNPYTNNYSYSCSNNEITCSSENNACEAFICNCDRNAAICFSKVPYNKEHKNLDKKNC

Turning to “KVLDGQDP [Peptide R2, synthetic peptide of the invention]”, the “PLA2 activity (FIG. 1), result in words” value in assay [1] is on record as “significantly reduced”. For the same sequence, the “TGase activity (FIG. 2), result in words” value in assay [2] was “significantly reduced”.

Take “KVLDPVKG [Peptide R1, synthetic peptide of the invention]”: the “PLA2 activity (FIG. 1), result in words” value in assay [1] is listed as “significantly reduced”. Besides, the “TGase activity (FIG. 2), result in words” value in assay [2] is “significantly reduced”.
